{"source": "patent US20090325168", "proteins": {"B1": {"name": "CPP32 protease (protein)", "chain": "SGISLDNSYKMDYPEMGLCIIINNKNFHKSTGMTSRSGTDVDAANLRETFRNLKYEVRNKNDLTREEIVELMRDVSKEDHSKRSSFVCVLLSHGEEGIIFGTNGPVDLKKITNFFRGDRCRSLTGKPKLFIIQACRGTELDCGIETDSGVDDDMACHKIPVEADFLYAYSTAPGYYSWRNSKDGSWFIQSLCAMLKQYADKLEFMHILTRVNRKVATEFESFSFDATFHAKKQIPCIVSMLTKELYFYH"}}, "key": {"[1]": {"biological_target": "T1, Fm-CGD2D, Fm-K[F1]DBJGDEVDGIDGJPK[F1]GY (compound 11 of Table 12)", "T1 chain": "KDXXGDEVDGIDGXPKGY"}, "[2]": {"biological_target": "T2, Fm-G2D2D, Fm-K[F1]DBGDEVDGIDGPK[F1]GY (compound 10 of Table 12)", "T2 chain": "KDXGDEVDGIDGPKGY"}}, "data": [{"protein": "B1", "values": [{"measurement": "hydrolysis rate, fold increase over compound 10 (Fm-G2D2D)", "setting": "[1]", "result": "the hydrolysis rate was further increased by ca. 3-fold over the above glycine residue insertion"}, {"measurement": "substrate hydrolysis rate, fold increase over compound 4 (Fm-DEVD)", "setting": "[1]", "result": "overall at least a 9-fold increase in substrate hydrolysis rate was accomplished (compounds 4 and 11, Table 12)"}, {"measurement": "hydrolysis rate, fold increase over compound 4 (Fm-DEVD)", "setting": "[2]", "result": "The hydrolysis rate was increased by 3-fold between compounds 4 ... and 10"}]}]}
